Test results: patent US20100311696A1, “TOPICAL SKIN TREATMENT COMPOSITION” (priority 2002, published 2010)

Tests used:
[1] = Skin penetration after topical application of the somatotropin composition; format: in vivo; details: composition topically applied
Method: (§1) A drug delivery composition formulated with somatotropin was formulated in one trial with 85% phosphatidylcholine to which lipoic acid and ascorbyl palmitate were added.

[2] = Dispersion and stability of somatotropin in phosphatidylcholine; format: physicochemical; details: 85% phosphatidylcholine with lipoic acid and ascorbyl palmitate
Method: as §1

[3] = RP-HPLC and HPCE stability analyses of insulin standards and insulin compositions, Example 1; format: physicochemical; details: stored at room temperature
Method: This mixture was then divided in half, half of which was stored at 4° C., and the other half stored at room temperature.

[4] = RP-HPLC and HPCE stability analyses of insulin standards and stable insulin compositions, Example 2; format: physicochemical; details: stored at room temperature

Somatotropin: Somatotropin (pituitary growth hormone) formulated with 85% phosphatidylcholine, lipoic acid and ascorbyl palmitate
skin penetration [1]: penetrate the skin well
dispersion in phosphatidylcholine [2]: readily dispersed
stability in phosphatidylcholine [2]: remained stable

insulin standards: Insulin in 0.01 N HCl: 1 mg/ml Sigma insulin (Example 1), 5 mg/ml (Example 2)
time at which denaturing started (RP-HPLC and HPCE) [3]: ≤ 7 days
time at which denaturing started (RP-HPLC and HPCE) [4]: ≤ 1 week
